# B1: p150CC1 (residues 221-509) of dynactin p150Glued (domain or fragment, UniProt P13496 221-509, looked up)
# chain: ALLEAQKTSAELQAQLADLTEKLETLKQRRNEDKERLREFDKMKIQFEQLQEFRTKIMGAQASLQKELLRAKQEAKDAIEAKEQHAQEMADLADNVEMITLDKEMAEEKADTLQLELESSKERIEELEVDLELLRSEMQNKAESAIGNISGGGDSPGLSTYEFKQLEQQNIRLKETLVRLRDLSAHDKHDIQKLSKELEMKRSEVTELERTKEKLSAKIDELEAIVADLQEQVDAALGAEEMVEQLAEKKMELEDKVKLLEEEIAQLEALEEVHEQLVESNHELELDLR
# Molecular target: the molecule itself
protein,measurement,value
B1,stoichiometry N,2
